One test addresses T1, HD-5 (Homo sapiens, UniProt Q01523).
T1 sequence (Q01523 63-94 limits assumed): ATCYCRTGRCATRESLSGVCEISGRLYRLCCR
The settings on record: in vitro, against Salmonella enterica serovar Typhimurium; cited from earlier work.

In another test the test system is trypsin. The note with it: in vitro; cited from earlier work.
The subject of the next test is human CEA antigen. Briefly: Cytotoxicity (CTL) assays in HD-5 transgenic mice immunized orally with the Salmonella based CEA-DNA vaccine. The test is classed as in vivo. The settings on record: oral immunization, defensin inhibitor co-formulated or expressed by the strain. The text has this:
HD-5 inhibitors enhance efficacy of whole organism vaccines such as Salmonella enterica serovar Typhimurium. Human defensin 5 (HD-5), is the major defensin in humans which is bactericidal for Salmonella typhimurium infection. HD-5 transgenic mice are dramatically more resistant to Salmonella typhimurium infection providing a model system to study effectiveness of Salmonella typhimurium as a platform vaccine carrier in the presence of inhibitors of HD-5. See Gosh D. et al., Nature Immunology, 3:583 (2002); Zasloff M, Nature Immunology, 3:508 (2002). HD-5 inhibitors increase efficacy of the Salmonella enterica based human CEA-DNA vaccine. Human CEA (carcinoembryonic antigen) is a tumor antigen for which protective immunity can be induced by vaccination with a live attenuated Salmonella enterica vaccine. See Xiang R. et al., Clinical Cancer Research, 7: 856s (2001). Efficacy of the vaccine is measured by conducting cytotoxicity (CTL) assays in HD-5 transgenic mice to measure immune response to the human CEA antigen. CTL assays are conducted in mice immunized orally with various doses of the vaccine (RemeStim-CEA), with or without addition of the HD-5 inhibitor. […]

In test [1] the test system is Salmonella enterica serovar Typhimurium. The settings on record: cited from earlier work.

For “alpha 2-macroglobulin: protein inhibitor of defensins”, in the test with HD-5, the “inhibition of the bactericidal activity of the mature, active defensin” value (“inhibition … active defensin” for short) is “inhibit the bactericidal activity”.
As for `N=C(N)c1ccc(CS(=O)(=O)F)cc1` [APMSF, 4-amidinophelylmethane sulfonyl-fluoride], the “inhibition of maturation of pro-HD-5 to mature HD-5 by trypsin” value in the test with trypsin was “inhibit maturation of pro-HD-5 to mature HD-5”.
Consider “alpha 1-proteinase inhibitor: serpin, inhibitor of defensins”, for which, in the test with HD-5, the “inhibition … active defensin” value is reported as “inhibit the bactericidal activity”.
Turning to Dermatan sulfate [reference compound], the “inhibition … active defensin” value at HD-5 is recorded as “inactivates alpha-defensin anti-bacterial activity”. The “effectiveness of the Salmonella based CEA-DNA vaccine as measured by cytotoxicity assays” value in the test with human CEA antigen is “enhances the effectiveness”.
With “Pro-piece of HD-5: pro-domain of human HD-5 (amino acids 20-62), HD-5 peptide inhibitor (ESLQERADEATTQKQSGEDNQDLAISFAGNGLSALRTSGSQAR)”, the “inhibition … active defensin” value with HD-5 was “inhibit the bactericidal activity”.

B1: alpha 1-antichymotrypsin: serpin, inhibitor of defensins (protein, UniProt P01011 24-423, looked up)
Alpha-1-antichymotrypsin: HPNSPLDEENLTQENQDRGTHVDLGLASANVDFAFSLYKQLVLKAPDKNVIFSPLSISTALAFLSLGAHNTTLTEILKGLKFNLTETSEAEIHQSFQHLLRTLNQSSDELQLSMGNAMFVKEQLSLLDRFTEDAKRLYGSEAFATDFQDSAAAKKLINDYVKNGTRGKITDLIKDLDSQTMMVLVNYIFFKAKWEMPFDPQDTHQSRFYLSKKKWVMVPMMSLHHLTIPYFRDEELSCTVVELKYTGNASALFILPDQDKMEEVEAMLLPETLKRWRDSLEFREIGELYLPKFSISRDYNLNDILLQLGIEEAFTSKADLSGITGARNLAVSQVVHKAVLDVFEEGTEASAATAVKITLLSALVETRTIVRFNRPFLMIIVPTDTQNIFFMSKVTNPKQA
On to B1, for which the “inhibition … active defensin” value with HD-5 is on record as “inhibit the bactericidal activity”.

B2: HD-5: human defensin 5, anti-microbial peptide of the human intestine (protein, UniProt Q01523 20-94, looked up)
Defensin alpha 5: ESLQERADEATTQKQSGEDNQDLAISFAGNGLSALRTSGSQARATCYCRTGRCATRESLSGVCEISGRLYRLCCR
modifications: Defensin-5
notes: human defensin 5, anti-microbial peptide of the human intestine
As to B2, the “bactericidal activity against Salmonella Typhimurium” value in test [1] is reported as “bactericidal”.
